{
  "source": "patent US20180273595A1",
  "about": "(REGENTS OF THE UNIVERSITY OF MICHIGAN, published 2018)",
  "binders": {"B1": {"name": "biotinylated muEIP2 peptide (peptide)", "peptide": "LSAGSAP", "modifications": "also: biotin, position not given here", "notes": "also called biotin-muEIP2; mutant EIP2 (muEIP2)"}, "B2": {"name": "7-mer LPPYLFT capped at the N-terminus only (Ac-LPPYLFT) (peptide)", "peptide": "Ac-LPPYLFT-OH", "notes": "Variant inferred from the sentence on capping"}, "B3": {"name": "LPPYLFT with 4-methylpiperazine (Pip) added (peptide)", "peptide": "LPPYLFT", "modifications": "not fully specified (N-terminus)", "notes": "also called more soluble version of EIP1"}, "B4": {"name": "PPYL with 4-methylpiperazine (Pip) added (peptide)", "peptide": "[Pip′]PPYL", "modifications": "not fully specified", "notes": "also called more soluble version of 4PL-A"}},
  "note": "*1 amine or outer side, *2 acyl side, *3 side chain or, on linkers, in order; H or OH if unused. Primed or numbered codes have the meaning given here. Where no end group is shown, it is not given here. [ ]: non-standard residue; d: D form. Y(Me) = COc1ccc(C[C@H](N[*:1])C(=O)[*:2])cc1; Pip′ = 4-methylpiperazine; βAla = NCCC(=O)O",
  "data": [
    {"target": "T1, recombinant His-tagged full-length ERG (UniProt P11308 1-479, biotinylated with NHS-PEG4 biotin for the OctetRED assays)", "T1 construct": "mature; Baculovirus expression in SF9 cells, Ni-NTA purified; also called wild-type ERG; wtERG; not shown: His tag", "T1 sequence (looked up)": "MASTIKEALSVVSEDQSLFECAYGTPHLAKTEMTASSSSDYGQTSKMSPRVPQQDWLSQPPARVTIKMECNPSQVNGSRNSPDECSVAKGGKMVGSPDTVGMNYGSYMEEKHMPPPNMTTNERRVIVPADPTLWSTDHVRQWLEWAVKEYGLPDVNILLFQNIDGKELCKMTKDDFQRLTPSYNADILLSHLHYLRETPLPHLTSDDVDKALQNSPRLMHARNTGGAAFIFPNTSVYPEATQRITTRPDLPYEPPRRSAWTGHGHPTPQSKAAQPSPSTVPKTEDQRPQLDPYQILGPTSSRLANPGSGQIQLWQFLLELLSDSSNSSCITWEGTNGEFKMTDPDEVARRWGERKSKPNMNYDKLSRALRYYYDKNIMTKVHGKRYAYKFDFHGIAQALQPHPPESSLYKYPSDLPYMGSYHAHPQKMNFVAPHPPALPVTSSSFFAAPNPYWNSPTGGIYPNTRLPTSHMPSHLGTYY", "assay": "OctetRED BLI", "units": {"Kd": "µM"}, "values": [
      {"binder": "LSFGSLPGGRKKRRQRRRG", "note": "[TAT-EIP2 cell-permeable peptide]", "Kd": 1.11},
      {"binder": "LPPYLFTGGRKKRRQRRRG (not fully specified, also called FITC-labeled TAT-EIP1)", "note": "[TAT-EIP1 cell-permeable peptide]", "Kd": 0.68}
    ]},
    {"target": "T1, recombinant His-tagged full-length ERG", "assay": "OctetRED BLI, alanine substitution peptides of TAT-EIP1", "units": {"fold increase in Kd against parental TAT-EIP1": "fold"}, "values": [
      {"binder": "LPPALFTGGRKKRRQRRRG (also called Y→A)", "note": "[TAT-EIP1 with Y to A substitution]", "fold increase in Kd against parental TAT-EIP1": "> 100"},
      {"binder": "LAPYLFTGGRKKRRQRRRG (also called P^2→A)", "note": "[TAT-EIP1 with P2 to A substitution]", "fold increase in Kd against parental TAT-EIP1": "> 100"}
    ]},
    {"target": "T1, recombinant His-tagged full-length ERG", "assay": "OctetRED BLI, biotinylated ERG on streptavidin sensors", "units": {"Kd": "µM"}, "protocol": "(§1) The interaction coefficients between ERG and synthetic peptides or peptidomimetics were determined by biolayer interferometry technology using the Octet Red system (ForteBio). Purified ERG and GUS proteins were biotinylated by EZLink NHS-PEG4 Biotinylation Kit (Thermo Scientific) following the manufacturer's protocol and any unincorporated biotin was removed from the reactions with Zeba 2 ml desalt columns (Thermo). Biotinylated proteins (500 μg/ml) were then incubated with super streptavidin biosensors in binding buffer (20 mM HEPES pH 7.4, 150 mM NaCl), blocked with 10 μg/ml biocytin and washed three times in binding buffer. Peptides were serially diluted in binding buffer, mixed with the protein-coupled biosensors and peptidomimetic:protein association/dissociation was monitored for 10 min at 25° C. Nonspecific binding from the signal obtained from peptidomimetic:GUS interactions was subtracted from that of peptidomimetic:ERG interactions and baseline signal drift was controlled by monitoring immobilized ERG without peptide. Octet Red analysis software was used to analyze the data.", "values": [
      {"binder": "LSFGSLP", "note": "[EIP2 synthetic peptide LSFGSLP]", "Kd": 1.8},
      {"binder": "FTFGSLP", "note": "[synthetic peptide FTFGSLP]", "Kd": 3.9},
      {"binder": "LSFGSFP", "note": "[synthetic peptide LSFGSFP]", "Kd": 12.5},
      {"binder": "LAFGSLP", "note": "[synthetic peptide LAFGSLP]", "Kd": 6.4},
      {"binder": "LSFGTFP", "note": "[synthetic peptide LSFGTFP]", "Kd": 9.2},
      {"binder": "FSFGSLP", "note": "[synthetic peptide FSFGSLP]", "Kd": 2.1},
      {"binder": "LTFGSLP", "note": "[synthetic peptide LTFGSLP]", "Kd": 2.9},
      {"binder": "LRFGTLP", "note": "[synthetic peptide LRFGTLP]", "Kd": 7.9},
      {"binder": "FSASSPA", "note": "[synthetic peptide FSASSPA]", "Kd": 21.1},
      {"binder": "LPPYLFT", "note": "[EIP1 synthetic peptide LPPYLFT]", "Kd": 0.6},
      {"binder": "MTFGTLP", "note": "[synthetic peptide MTFGTLP]", "Kd": 4.6},
      {"binder": "YTFGTLP", "note": "[synthetic peptide YTFGTLP]", "Kd": 3.2}
    ]},
    {"target": "T1, recombinant His-tagged full-length ERG", "assay": "OctetRED biolayer interferometry, steady-state analysis", "protocol": "as §1", "values": [
      {"binder": "LPPTFLY", "note": "[scrambled peptide LPPTFLY]", "binding result": "no binding (tested: 20 µM)"}
    ]},
    {"target": "T1, recombinant His-tagged full-length ERG", "assay": "OctetRED; Kd table of synthetic peptides on ERG", "units": {"Kd": "µM"}, "protocol": "as §1", "values": [
      {"binder": "H-PPYL-NH2 (also called H2N-PPYL-NH2)", "note": "[4PL-N]", "Kd": "> 100"},
      {"binder": "H-LPPYLF-NH2 (also called H2N-LPPYLF-NH2)", "note": "[6LF-N]", "Kd": 4.88},
      {"binder": "H-PPYLF-NH2 (also called H2N-PPYLF-NH2)", "note": "[5PF-N]", "Kd": 10.2},
      {"binder": "H-PYLFT-NH2", "note": "[5PT-N (NH2-PYLFT-NH2)]", "Kd": 1.31},
      {"binder": "Ac-PPYLFT-NH2 (also called Ac-PPYLFT-NH2)", "note": "[6PT-A]", "Kd": 3.64},
      {"binder": "Ac-LPPYLF-NH2 (also called Ac-LPPYLF-NH2)", "note": "[6LF-A]", "Kd": "> 100"},
      {"binder": "Ac-PYLFT-NH2 (also called Ac-PYLFT-NH2)", "note": "[5PT-A]", "Kd": 5.15},
      {"binder": "Ac-LPPYL-NH2 (also called Ac-LPPYL-NH2)", "note": "[5LL-A]", "Kd": 12.4},
      {"binder": "H-LPPYL-NH2 (also called H2N-LPPYL-NH2)", "note": "[5LL-N]", "Kd": 9.6},
      {"binder": "H-PPYLFT-NH2 (also called H2N-PPYLFT-NH2)", "note": "[6PT-N]", "Kd": 11.5},
      {"binder": "Ac-PPYLF-NH2 (also called Ac-PPYLF-NH2)", "note": "[5PF-A]", "Kd": 9.44}
    ]},
    {"target": "T2, TMPRSS2:ERG gene fusion product, endogenous in VCaP cells (UniProt P11308 33-479, limits assumed)", "T2 construct": "In cell lysates, in cells or in xenograft tumors; also called endogenous ERG; VCaP ERG", "T2 sequence (looked up)": "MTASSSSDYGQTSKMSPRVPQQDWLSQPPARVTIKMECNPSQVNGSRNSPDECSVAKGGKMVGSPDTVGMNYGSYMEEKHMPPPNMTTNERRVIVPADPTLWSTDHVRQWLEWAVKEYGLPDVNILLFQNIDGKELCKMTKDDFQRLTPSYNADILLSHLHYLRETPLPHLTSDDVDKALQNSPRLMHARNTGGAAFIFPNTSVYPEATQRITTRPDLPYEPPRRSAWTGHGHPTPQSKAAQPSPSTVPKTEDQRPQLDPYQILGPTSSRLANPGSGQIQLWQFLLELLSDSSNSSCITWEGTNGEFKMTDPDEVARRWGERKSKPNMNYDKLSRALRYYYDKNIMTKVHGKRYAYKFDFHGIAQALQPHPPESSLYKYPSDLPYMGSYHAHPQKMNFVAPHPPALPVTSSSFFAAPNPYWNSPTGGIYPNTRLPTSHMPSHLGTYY", "assay": "pull-down of VCaP lysate with biotinylated peptide, ERG immunoblot", "protocol": "Approximately 1 mg of soluble VCaP cell lysate prepared in RIPA buffer (Invitrogen) was incubated with varying amounts of biotinylated peptides for 2 hours at 4° C. HaloLink agarose beads (20 μl) were added to the peptide-lysate mixture and incubated for an additional 4 hours. Beads were then pelleted by centrifugation, washed three times in PBS-T and loaded into an SDSPAGE gel followed by Western blot analysis. Total VCaP cell lysate was loaded for positive control.", "values": [
      {"binder": "B1", "binding result": "no binding (tested: 20 µM)"}
    ]},
    {"target": "T1, recombinant His-tagged full-length ERG", "assay": "OctetRED biolayer interferometry, biotinylated ERG on streptavidin sensors, peptide in solution", "protocol": "as §1", "values": [
      {"binder": "LSAGSAP (Alanine substitution control)", "note": "[muEIP2 synthetic peptide LSAGSAP]", "binding result": "no binding (tested: 20 µM)"},
      {"binder": "LPPALFT (Alanine substitution control)", "note": "[muEIP1 synthetic peptide LPPALFT]", "binding result": "no binding (tested: 20 µM)"}
    ]},
    {"target": "T3, Halo-tagged full-length ERG (UniProt P11308 1-479)", "T3 construct": "mature; In vitro transcription/translation in wheat germ lysate; also called Halo-ERG fusion protein; not shown: HaloTag (about 35 kDa), N-terminal", "T3 sequence (looked up)": "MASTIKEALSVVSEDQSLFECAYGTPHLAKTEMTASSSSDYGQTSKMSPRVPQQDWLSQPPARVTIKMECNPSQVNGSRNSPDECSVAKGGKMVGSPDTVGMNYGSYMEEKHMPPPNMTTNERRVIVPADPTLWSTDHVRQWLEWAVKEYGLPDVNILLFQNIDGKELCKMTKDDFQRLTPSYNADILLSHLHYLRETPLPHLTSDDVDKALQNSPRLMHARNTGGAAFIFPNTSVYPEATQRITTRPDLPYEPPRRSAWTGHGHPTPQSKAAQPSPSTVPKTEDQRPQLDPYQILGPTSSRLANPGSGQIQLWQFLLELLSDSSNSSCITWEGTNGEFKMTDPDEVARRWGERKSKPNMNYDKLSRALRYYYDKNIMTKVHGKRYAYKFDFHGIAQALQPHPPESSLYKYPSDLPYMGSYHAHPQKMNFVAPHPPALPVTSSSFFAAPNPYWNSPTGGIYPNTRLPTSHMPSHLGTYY", "assay": "competitive pull-down: Halo-ERG with purified DNA-PKcs or GST-AR and peptide, HaloLink beads, immunoblot", "values": [
      {"binder": "LPPALFT (Alanine substitution control)", "note": "[muEIP1 synthetic peptide LPPALFT]", "binding result": "no binding (tested: 50 µM)"}
    ]},
    {"target": "T1, recombinant His-tagged full-length ERG", "assay": "Kd table of synthetic peptides on ERG; assay not given", "units": {"Kd": "µM"}, "values": [
      {"binder": "LPPYLFT", "note": "[EIP1 synthetic peptide LPPYLFT]", "Kd": 0.972},
      {"binder": "Ac-LPPHLFT-NH2 (also called Ac-LPPHLFT-NH2)", "note": "[7LT-4H]", "Kd": "> 100"},
      {"binder": "Ac-LPPDLFT-NH2 (also called Ac-LPPDLFT-NH2)", "note": "[7LT-4D]", "Kd": "> 100"},
      {"binder": "Ac-LPPFLFT-NH2 (also called Ac-LPPFLFT-NH2)", "note": "[7LT-4F]", "Kd": "> 100"},
      {"binder": "Ac-LPPWLFT-NH2 (also called Ac-LPPWLFT-NH2)", "note": "[7LT-4W]", "Kd": "> 100"}
    ]},
    {"target": "T1, recombinant His-tagged full-length ERG", "assay": "Kd table of synthetic peptides on ERG; assay not given", "remark": "another data set of the same source", "units": {"Kd": "µM"}, "values": [
      {"binder": "H-PPYL-NH2 (also called H2N-PPYL-NH2)", "note": "[4PL-N]", "Kd": 94.2},
      {"binder": "B2", "Kd": 2.8},
      {"binder": "Ac-PPYL-NH2 (also called capped 4-mer peptide PPYL)", "note": "[4PL-A (Ac-PPYL-NH2)]", "Kd": 1.4},
      {"binder": "LPPYLFT", "note": "[EIP1 synthetic peptide LPPYLFT]", "Kd": 2.8}
    ]},
    {"target": "T1, recombinant His-tagged full-length ERG", "assay": "Kd table of synthetic peptides on ERG; assay not given", "remark": "another data set of the same source", "units": {"Kd": "µM"}, "values": [
      {"binder": "[Pip′][βAla][βAla]PPYL-NH2 (not fully specified, also called Pip-βAβA-PPYL-NH2)", "note": "[4PL-Pip2]", "Kd": 3},
      {"binder": "PPYE (not fully specified)", "note": "[PPYE peptide (mutation of PPYL to PPYE)]", "binding result": "no binding"},
      {"binder": "B3", "Kd": 1.7},
      {"binder": "B4", "Kd": 3.3}
    ]},
    {"target": "T1, recombinant His-tagged full-length ERG", "assay": "Kd table of synthetic peptides on ERG; assay not given", "remark": "another data set of the same source", "units": {"Kd": "µM"}, "values": [
      {"binder": "[Pip′]PP[Y(Me)]L-NH2 (also called Pip-PPY(Me)L-NH2)", "note": "[4PL-3Y(Me)]", "Kd": 15.5},
      {"binder": "[Pip′]PPFL-NH2 (also called Pip-PPFL-NH2)", "note": "[4PL-3F]", "Kd": 3.9},
      {"binder": "[Pip′]PPYF-NH2 (also called Pip-PPYF-NH2)", "note": "[4PL-4F]", "binding result": "no binding"},
      {"binder": "[Pip′]PPYA-NH2 (also called Pip-PPYA-NH2)", "note": "[4PL-4A]", "Kd": 7.9},
      {"binder": "[Pip′]PPYD-NH2 (also called Pip-PPYD-NH2)", "note": "[4PL-4D]", "Kd": 14.8}
    ]}
  ]
}
